# In patent publication US20090035321A1, “Intercellular adhesion molecules and their binding ligands” (Boehringer Ingelheim Pharmaceuticals, Inc., published 2009):
# What was measured:
# Assay in all cases: 35S-HRV14 on COS cells
# [1] = target: ICAM-1 N240DS/KNA (human, UniProt P05362)
# Protocol: (§1) COS cells were seeded into 10 cm tissue culture plates such that they would be 50% confluent by 16-24 hrs. COS cells were then washed once with TBS and incubated for 4 hrs with 4 ml RPMI containing 10% Nu sera (Collaborative) 5 pg/ml chloroquine, 3 μg of mutant plasmid and 200 μg/ml DEAE-dextran sulfate. Cells were then washed with 10% DMSO/PBS followed by PBS and cultured 16 hrs in culture media. Culture media was replaced with fresh media and at 48 hrs post transfection (OS cells were suspended by trypsin/EDTA (Gibco) treatment and divided into 2, 10 cm plates as well as 24 well tissue culture plates for HRV binding. At 72 hrs cells were harvested from 10 cm plates with 5 mM EDTA/HBSS and processed for adhesion to LFA-1 coated plastic and immunofluorescence.
# (§2) Binding occurred in 1 hr at 35° C. in a 5% CO₂ atmosphere with horizontal rotation (100 rpm). Unbound [³⁵S] HRV14 was aspirated, COS cells were gently washed with 150 ml of HRV buffer and then solubilized with 1% SDS in PBS for scintillation counting.
# (§3) In Table 25, the notation for the mutations uses the one-letter code for the wild-type sequence followed by a slash and the one-letter code for the corresponding mutant sequence. The position of the first amino acid within the sequence is indicated. Wild type residues precede the slash followed by the residues they were substituted for in the mutant. COS cells expressing ICAM-1 mutants were tested for adherence to LFA-1 coated plastic and for binding 35S met-labeled HRV14. […] Binding is presented as mean and standard error (SE) for multiple experiments (n). […] The specific linear fluorescence intensity (SLFI) of CL203 for each mutant is normalized to that of wild type CL203 SLFI (% WT) as discussed above. The SLFI of RR1/1, R6.5 and LB-2 SLFI is normalized to the CL203 SLFI of the mutant (% CL203) as described above.
# [2] = target: ICAM-1 E254DE/KEK (human, UniProt P05362)
# Protocol: as §1, §2, §3
# [3] = target: ICAM-1 Q1/K (human, UniProt P05362)
# Protocol: as §1, §2, §3
# [4] = target: ICAM-1 S3/T (human, UniProt P05362)
# Protocol: as §1, §2, §3
# [5] = target: ICAM-1 V4/G (human, UniProt P05362)
# Protocol: as §1, §2, §3
# [6] = target: ICAM-1 R13G/EA (human, UniProt P05362)
# Protocol: as §1, §2, §3
# [7] = target: ICAM-1 G15/SA (human, UniProt P05362)
# Protocol: as §1, §2, §3
# [8] = target: ICAM-1 T20CS/ACT (human, UniProt P05362)
# Protocol: as §1, §2, §3
# [9] = target: ICAM-1 S24/A (human, UniProt P05362)
# Protocol: as §1, §2, §3
# [10] = target: ICAM-1 D26QPK/ALPE (human, UniProt P05362)
# Protocol: as §1, §2, §3
# [11] = target: ICAM-1 N48/H (human, UniProt P05362)
# Protocol: as §1, §2, §3
# [12] = target: ICAM-1 R49KV/EKL (human, UniProt P05362)
# Protocol: as §1, §2, §3
# [13] = target: ICAM-1 K50V/EL (human, UniProt P05362)
# Protocol: as §1, §2, §3
# [14] = target: ICAM-1 Q58/H (human, UniProt P05362)
# Protocol: as §1, §2, §3
# [15] = target: ICAM-1 D60/N (human, UniProt P05362)
# Protocol: as §1, §2, §3
# [16] = target: ICAM-1 Y66/T (human, UniProt P05362)
# Protocol: as §1, §2, §3
# [17] = target: ICAM-1 N68/K (human, UniProt P05362)
# Protocol: as §1, §2, §3
# [18] = target: ICAM-1 D71GQS/NGEL (human, UniProt P05362)
# Protocol: as §1, §2, §3
# [19] = target: ICAM-1 T75/A (human, UniProt P05362)
# Protocol: as §1, §2, §3
# [20] = target: ICAM-1 K77T/ES (human, UniProt P05362)
# Protocol: as §1, §2, §3
# [21] = target: ICAM-1 E87/K (human, UniProt P05362)
# Protocol: as §1, §2, §3
# [22] = target: ICAM-1 E90/Q (human, UniProt P05362)
# Protocol: as §1, §2, §3
# [23] = target: ICAM-1 N103/K (human, UniProt P05362)
# Protocol: as §1, §2, §3
# [24] = target: ICAM-1 R125/E (human, UniProt P05362)
# Protocol: as §1, §2, §3
# [25] = target: ICAM-1 V136GE/GVK (human, UniProt P05362)
# Protocol: as §1, §2, §3
# [26] = target: ICAM-1 H152HGA/EEGS (human, UniProt P05362)
# Protocol: as §1, §2, §3
# [27] = target: ICAM-1 D203TQ/TAD (human, UniProt P05362)
# Protocol: as §1, §2, §3
# [28] = target: ICAM-1 D213GL/HGV (human, UniProt P05362)
# Protocol: as §1, §2, §3
# [29] = target: ICAM-1 D229QR/HLE (human, UniProt P05362)
# Protocol: as §1, §2, §3
binder,measurement,setting,value
"human rhinovirus 14 (HRV14) (other, [35S]-Met labeled) GAQVSTQKSGSHENQNILTNGSNQTFTVINYYKDAASTSSAGQSLSMDPSKFTEPVKDLMLKGAPALNSPNVEACGYSDRVQQITLGNSTITTQEAANAVVCYAEWPEYLPDVDASDVNKTSKPDTSVCRFYTLDSKTWTTGSKGWCWKLPDALKDMGVFGQNMFFHSLGRSGYTVHVQCNATKFHSGCLLVVVIPEHQLASHEGGNVSVKYTFTHPGERGIDLSSANEVGGPVKDVIYNMNGTLLGNLLIFPHQFINLRTNNTATIVIPYINSVPIDSMTRHNNVSLMVIPIAPLTVPTGATPSLPITVTIAPMCTEFSGIRSKSIVPQGLPTTTLPGSGQFLTTDDRQSPSALPNYEPTPRIHIPGKVHNLLEIIQVDTLIPMNNTHTKDEVNSYLIPLNANRQNEQVFGTNLFIGDGVFKTTLLGEIVQYYTHWSGSLRFSLMYTGPALSSAKLILAYTPPGARGPQDRREAMLGTHVVWDIGLQSTIVMTIPWTSGVQFRYTDPDTYTSAGFLSCWYQTSLILPPETTGQVYLLSFISACPDFKLRLMKDTQTISQTVALTEGLGDELEEVIVEKTKQTVASISSGPKHTQKVPILTANETGATMPVLPSDSIETRTTYMHFNGSETDVECFLGRAACVHVTEIQNKDATGIDNHREAKLFNDWKINLSSLVQLRKKLELFTYVRFDSEYTILATASQPDSANYSSNLVVQAMYVPPGAPNPKEWDDYTWQSASNPSVFFKVGDTSRFSVPYVGLASAYNCFYDGYSHDDAETQYGITVLNHMGSMAFRIVNEHDEHKTLVKIRVYHRAKHVEAWIPRAPRALPYTSIGRTNYPKNTEPVIKKRKGDIKSY",HRV Binding %,[1],82 % of wild type
same,HRV Binding %,[2],99 % of wild type
same,HRV Binding %,[3],78 % of wild type
same,HRV Binding %,[4],196 % of wild type
same,HRV Binding %,[5],30 % of wild type
same,HRV Binding %,[6],3 % of wild type
same,HRV Binding %,[7],164 % of wild type
same,HRV Binding %,[8],130 % of wild type
same,HRV Binding %,[9],99 % of wild type
same,HRV Binding %,[10],13 % of wild type
same,HRV Binding %,[11],81 % of wild type
same,HRV Binding %,[12],49 % of wild type
same,HRV Binding %,[13],10 % of wild type
same,HRV Binding %,[14],1 % of wild type
same,HRV Binding %,[15],89 % of wild type
same,HRV Binding %,[16],204 % of wild type
same,HRV Binding %,[17],137 % of wild type
same,HRV Binding %,[18],21 % of wild type
same,HRV Binding %,[19],119 % of wild type
same,HRV Binding %,[20],42 % of wild type
same,HRV Binding %,[21],27 % of wild type
same,HRV Binding %,[22],157 % of wild type
same,HRV Binding %,[23],13 % of wild type
same,HRV Binding %,[24],157 % of wild type
same,HRV Binding %,[25],117 % of wild type
same,HRV Binding %,[26],82 % of wild type
same,HRV Binding %,[27],111 % of wild type
same,HRV Binding %,[28],99 % of wild type
same,HRV Binding %,[29],106 % of wild type
